The target of assay [1] is T1, cynomolgus monkey GITR on PBMCs (cynomolgus monkey).
T1 construct: whole, on cells; also called cynoGITR-expressing PBMCs
In words: FACS, Alexa488-labeled antibody on PHA-stimulated cynomolgus monkey PBMCs. The protocol: (§1) Specifically, human or cynomolgus monkey peripheral blood mononuclear cells were isloated and diluted to 2×10^6/ml in RPMI-1640 medium containing 10% FBS. The cells were then stimulated with 5 ug/ml phytohaemagglutinin (PHA) for 72 hours in 6 well plates. […] The cells were then washed 2 times with FACS stain buffer (Becton Dickinson) and then co-stained with 50 ul of CD4-APC for 20 minutes in the dark at 4° C. The cells were then washed again 2 times with FACS stain buffer before being resuspended in 150 μL of FACS stain buffer (Becton Dickinson) and analyzed using a FACS Calibur instrument. from which binding curves were generated. Equilibrium dissociation constants (KD) for each antibody were determined from the binding curves.
On the technique in general: In flow cytometry, cells or beads pass a laser one at a time.

In assay [2] the target is T2, human GITR-Fc fusion protein (human, UniProt Q9Y5U5 26-162).
T2 construct: extracellular domain; also called hGITR-Fc; recombinant human GITR-Fc; not shown: Fc part
T2 sequence (looked up): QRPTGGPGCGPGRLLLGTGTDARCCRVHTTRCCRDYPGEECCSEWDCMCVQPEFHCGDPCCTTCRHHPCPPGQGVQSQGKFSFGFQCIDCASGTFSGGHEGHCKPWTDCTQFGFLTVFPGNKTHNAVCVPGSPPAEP
In words: SPR (BIAcore 2000), mAb captured on anti-mouse Fc, antigen injected. The protocol:
(§2) The binding kinetics of several anti-GITR antibodies to recombinant human GITR (hGITR) and cynomolgus monkey GITR (cGITR) were determined by surface plasmon resonance assay using a BIAcore 2000 (BIAcore Inc., […].). Briefly, a CM5 BIAcore biosensor chip was docked into the instrument and activated with 250 μL of 1:1 NHS/EDC at room temperature. A rabbit anti-mouse Fc IgG1 mAb (BIAcore #BR-1005-14) (13.5 μg/mL in 0.05M acetate buffer, pH 5) was immobilized on the activated chips in Flow cell 1. The immobilization was carried out at a flow rate of 5 μL/min. The chip was then blocked by injection of 55 μL of ethanolamine-HCl, pH 8.5, followed by five washes with 50 mM NaOH, 1M NaCl. To measure the binding of anti-GITR mabs to the human GITR protein or cyno GITR protein, antibodies were used at 2 μg/mL in BIAcore running buffer (HBS-EP). Antigens (human GITR or cyno GITR) were injected from 3 to 1000 nM. Following completion of the injection phase, dissociation was monitored in a BIAcore running buffer at the same flow rate for 360 sec. The surface was regenerated between injections using 30 μL of 50 mM NaOH-1 M NaCl. Individual sensorgrams were analyzed using […].
In general terms: In SPR one partner is held on a chip, and binding of the other changes the refractive index at the surface.

Assay [3] concerns the target T3, cynomolgus monkey GITR-Fc (cynomolgus monkey).
T3 construct: extracellular domain; also called cGITR-FC; cGITR
The assay is described as above. How it is done:
as §2

Assay [4] addresses T4, human GITR expressed on cells (human, UniProt Q9Y5U5 26-241).
T4 sequence (looked up): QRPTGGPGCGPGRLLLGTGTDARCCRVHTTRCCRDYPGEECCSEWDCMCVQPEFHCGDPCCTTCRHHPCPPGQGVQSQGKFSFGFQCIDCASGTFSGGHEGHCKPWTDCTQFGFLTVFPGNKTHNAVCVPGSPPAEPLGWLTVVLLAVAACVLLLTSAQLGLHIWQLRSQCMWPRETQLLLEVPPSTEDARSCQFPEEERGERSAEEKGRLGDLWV
In words: cell-based or functional assay.

The target in assay [5] is T2, human GITR-Fc fusion protein. In words: competition ELISA, GITRL coated, GITR-Fc 0.25 µg/mL pre-incubated with antibody. How it is done: The ability of anti-GITR antibodies to inhibit the binding of human GITRL to hGITR was assessed using a competition ELISA. Ninety-six well plates were coated with GITR-Ligand protein at 0.5 μg/well at 4° C., overnight. Wells were washed with washing buffer (PBS pH 7.4+0.05 Tween 20) and blocked with 200 μL of blocking buffer (PBS pH 7.4+0.05% Tween 20+1% BSA) for 1 hour at room temperature. Wells were then washed two times with washing buffer and exposed to 100 μL of pre-incubated mixtures of GITR-Fc at 0.25 μg/mL plus anti-GITR antibody in 2-fold serial dilutions starting at 10 μg/ml up to 12 dilutions for 1 hour at room temperature with agitation. Plates were washed four times with washing buffer and GITR-Ligand-bound recombinant human GITR-Fc was detected with the use of peroxidase-conjugated goat anti-human IgG-Fc (Sigma), followed by incubation with the TMB substrate (Interchim)
All antibodies generated using the methods disclosed herein were able to antagonize the binding of GITRL to GITR more potently than the prior art MAB689 antibody.

For assay [6], the target named is T3, cynomolgus monkey GITR-Fc. In words: SPR; KD on cGITR-Fc over KD on hGITR-Fc. The protocol:
as §2

The target in assay [7] is T4, human GITR expressed on cells. In words: Meso Scale assay, Sulfo-conjugated antibody on coated HEK293-Trex-hGITR cells. How it is done: The binding kinetics of anti-GITR antibodies to hGITR expressed on the surface of HEK293 cells were determined by Meso Scale assay. HEK293-Trex-hGITR cells (#2404) were coated at 25000 cells/well on a 96-well High Bind plate (MSD L15XB-3) for 2 hours at room temperature. Wells were washed 2 times with 150 μl/well of PBS and blocked with 150 μl/well of blocking solution for 30 min at room temperature. Following two washes with 150 μl/well of PBS, 25 μL/well of Sulfo-conjugated antibodies were added in 2-fold serial dilutions starting at 100 μg/ml up to 12 dilutions in assay diluent and incubated for 45 min at room temperature followed by two washes with PBS. The antibody binding was evaluated by adding 150 μl/well 1× Read buffer T without surfactant and read using the Mesoscale instrument.

Assay [8] has the same target. The assay can be described thus: FACS, Alexa488-labeled antibody on PHA-stimulated human PBMCs. The protocol: as §1

B1: anti-GITR antibody clone 2155 (murine) (antibody, V domains shown)
VH: EVKLVESGGGLVKPGGSLKLSCGASGFTISSYAMSWVRQSPEKRLEWVAIISTGGSTYYPDSVRGRFTISRDNARNSLYLQMSSLRSEDTAMYYCARVGGYYDSMDHWGQGTSVTVSS
VL: not shown
notes: Murine hybridoma antibody
What is called Kd is a measure of binding affinity in units of concentration. For orientation: koff means a measure of how fast the partners let go of each other. The IC50 is the concentration that gives 50% inhibition. For the molecule B1, the Kd was determined as 0.353 nM in assay [1]; 0.99 nM in assay [2]; 2.27 nM in assay [3]; 0.35 nM in assay [7]; 0.476 nM in assay [8]. Besides, the koff in assay [2] stood at 0.000508 s⁻¹; in assay [3], 0.00123 s⁻¹. The “IC50 of dose-dependent inhibition of NFkB signal transduction (luciferase reporter)” value in assay [4] was determined as 0.15 nM. The molecule further had an IC50 in assay [5] of 0.96 nM. Besides, the “Ratio cKD/hKD” value in assay [6] is 2.3.

B2: anti-GITR antibody clone 1718 (antibody, V domains shown)
VH: QVQVQQSGPELVKPGASVRISCKASDYTFTNYYIHWVRQRPGQGLEWLGWIYPGKGYTNYNEKFKGKATLTADKSSSTAYMQFSSLTSEDSAVYFCASGYGNYYFPYWGQGTLVTVSA
VL: IQMTQSSSYLSVSLGGRVTITCKASDHIKNWLAWYQQKPGNVPRLLMSAATSLETGFPSRFSGSGSGKDFTLTITSLQTEDVATYYCQQYWSTPWTFGGGTKLEIK
notes: Murine hybridoma antibody; also called 1718-GITR2; 1718 GITR-2
For the molecule B2, the Kd was determined as 2.57 nM in assay [2], 3.35 nM in assay [3], 0.857 nM in assay [7] and 4.13 nM in assay [8]. Moreover, the koff in assay [2] is 0.00038 s⁻¹; in assay [3] it was 0.000345 s⁻¹. This molecule displayed a concentration for half-maximal inhibition (IC50) in assay [5] of 1.02 nM. Further, the “Ratio cKD/hKD” value in assay [6] was 1.3.

B3: anti-GITR antibody clone 827 (antibody, V domains shown)
VH: EVQLQQSGTVLARPGASVKMSCETSGYSFTTYWIHWIKQRPGQGLEWIATIYPGNSDAGYNQKFRGKAKLTAVTSASTAYMELSSLTNEDSAVYYCTRSSTYPHFDYWGQGTTLTVSS
VL: DILLTQSPAILSVSPGERVSFSCRASQSIGTSIHWYQQRTNDSPRLLIKYASESISGIPSRFSGSGSGTDFTLNINSVESEDIADYYCQQTNNWPLTFGAGTKLELK
notes: Murine hybridoma antibody; also called 827-GITR2; 827 GITR-2
Turning to B3, the values for the Kd in assay [2], in assay [3] and in assay [7] were 4.43 nM, 20.9 nM and 4.44 nM, respectively. The values for the koff in assay [2] and in assay [3] were 0.000177 s⁻¹ and 0.000473 s⁻¹, respectively. Further, the IC50 in assay [5] stood at 2.5 nM. In addition, the “Ratio cKD/hKD” value in assay [6] was 4.7.

B4: anti-GITR antibody clone 1649 (antibody, V domains shown)
VH: EVQLQQSGTVLAGPGTSVKMSCEASGYSFTTYWIHWIKQRPGQGLEWIGAIYPGNSDAGYNQKFKGKAKLTAVTSASTAYMELSSLTNEDSAVYYCTRSSTYPHFDYWGQGTTLTVSS
VL: DILLTQSPAILSVSPGERVSFSCRASQSIGTSIHWYQQRTNDSPRLLIKYASESISGIPSRFSGSGSGTDFTLNINSVESEDIADYYCQQTNNWPLTFGAGTKLELK
notes: Murine hybridoma antibody; also called 1649-GITR2; 1649 GITR-2
In the case of B4, the results for the Kd in assay [2], in assay [3] and in assay [7] were 1.84 nM, 9.68 nM and 5.38 nM, respectively. Further, the values for the koff in assay [2] and in assay [3] were 7.44e-05 s⁻¹ and 0.00021 s⁻¹, respectively. For the same molecule, the IC50 in assay [5] turned out to be 3.76 nM. The “Ratio cKD/hKD” value in assay [6] is 5.3.

The record behind these values is patent publication US20130108641A1 (Sanofi, published 2013).
